{
  "source": "patent US20090311685A1",
  "about": "“NMU-GHSR1b/NTSR1 oncogenic signaling pathway as a therapeutic target for lung cancer” (Oncotherapy Science, Inc, priority 2006, published 2009)",
  "key": {"[1]": {"target": "T1, endogenous GHSR1b and NTSR1 on PC14 cells (Homo sapiens, UniProt P30989+Q92847)", "T1 construct": "endogenous in cells; host or cells: PC14", "T1 sequence (Q92847 1-289 isoform Q92847-2)": "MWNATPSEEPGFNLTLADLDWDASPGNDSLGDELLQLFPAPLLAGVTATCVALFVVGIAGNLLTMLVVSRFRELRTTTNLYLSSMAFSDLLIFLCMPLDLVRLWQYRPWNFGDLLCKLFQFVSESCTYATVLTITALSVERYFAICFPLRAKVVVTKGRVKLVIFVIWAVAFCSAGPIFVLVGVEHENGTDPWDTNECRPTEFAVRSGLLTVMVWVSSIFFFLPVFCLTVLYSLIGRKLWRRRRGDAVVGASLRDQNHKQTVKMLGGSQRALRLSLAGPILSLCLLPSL", "T1 sequence (P30989 whole entry)": "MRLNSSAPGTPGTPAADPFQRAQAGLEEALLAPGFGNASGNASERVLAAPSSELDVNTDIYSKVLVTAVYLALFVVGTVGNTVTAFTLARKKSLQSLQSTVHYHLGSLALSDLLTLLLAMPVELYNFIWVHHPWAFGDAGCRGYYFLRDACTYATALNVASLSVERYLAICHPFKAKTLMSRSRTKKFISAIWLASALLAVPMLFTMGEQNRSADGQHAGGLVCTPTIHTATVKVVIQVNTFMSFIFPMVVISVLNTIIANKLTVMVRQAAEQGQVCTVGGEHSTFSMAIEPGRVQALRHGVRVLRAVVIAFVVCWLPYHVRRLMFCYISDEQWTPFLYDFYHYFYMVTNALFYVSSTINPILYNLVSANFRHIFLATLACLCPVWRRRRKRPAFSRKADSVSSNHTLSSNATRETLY", "assay": "Ligand-receptor binding assay with Cy5-labeled NMU-25", "conditions": "1 μM, dose-dependent", "experimental": "(§1) To confirm the binding of NMU-25 to endogenous candidate receptors on the NSCLC cell, a receptor-ligand binding assay using LC319 and PC14 cells that express GHSR1b and NTSR1, but not NMU1R and NMU2R were performed. Specifically, trypsinized cells were seeded onto a 96-well (with black wall and clear bottom) microtiter plates 24 hours prior to the assay. The medium was removed and the cells were incubated with CyS-labeled NMU-25 peptide (1 μM) with or without the addition of 10-fold excess unlabeled NMU-25 peptide as the competitor. The plate was incubated in dark for 24 hours at 37° C. and then scanned on 8200 Cellular Detection System (Applied Biosystems) to quantify the amount of CyS fluorescence probe bound to the surface of each cell. (15) Immunocytochemistry for Internalized Receptors"}, "[2]": {"target": "T2, endogenous GHSR1b and NTSR1 on LC319 cells (Homo sapiens, UniProt P30989+Q92847)", "T2 construct": "endogenous in cells; host or cells: LC319", "T2 sequence (Q92847 1-289 isoform Q92847-2)": "as the sequence (Q92847 1-289 isoform Q92847-2) above", "T2 sequence (P30989 whole entry)": "as the sequence (P30989 whole entry) above", "assay": "Ligand-receptor binding assay with Cy5-labeled NMU-25", "conditions": "1 μM, dose-dependent", "experimental": "as §1"}, "NSCLC cells": {"test_system": "NSCLC cells", "assay": "Competition of NMU-induced cAMP production", "assay_type": "cell-based"}, "LC319 cells [3]": {"test_system": "LC319 cells", "assay": "Intracellular Ca^2+ mobilization assay (FLIPR)", "assay_type": "cell-based, human", "experimental": "Trypsinized LC319 cells were seeded onto poly-D-lysine coated 384-well black-wall, clear-bottom microtiter plate (1.0×10^4 cells/ml) 24 hours prior to the assay. The cells were loaded for 1 hour with 4 μM Fluo-3-AM fluorescent indicator dye in assay buffer (Hank's balanced salt solution, 20 mM HEPES, 2.5 mM probenecid), washed three times with assay buffer, and then incubated for 10 min at room temperature before detection on fluorometric imaging plate reader (FLIPR; Molecular Devices). Fluorescence data of Ca^2+ release were collected in real-time at 1 sec intervals for the first 65 sec and at 3 sec intervals for additional 300 sec after individual concentrations of peptide (NMU-25, […], or NTS) treatment. Maximum change in fluorescence over baseline was measured to determine the response of the cells to the individual peptide stimulations."}, "LC319 cells [4]": {"test_system": "LC319 cells", "assay": "Measurement of cAMP levels (cAMP EIA)", "assay_type": "cell-based, human", "conditions": "final concentrations of 3 to 100 μM", "experimental": "Trypsinized LC319, REF-LC-AI, NCI-H358 and SK-MED-1 cells were seeded onto a 96-well microtiter plate (5.0×10^4 cells) and cultured in appropriate medium supplemented with 10% FCS for 24 hours, and then the medium was changed to serum free/1 mM IBMX (isobutylmethylxanthine) 20 min prior to the assay. Next, the cells were incubated with individual concentrations of peptides (NMU-25, GHRL, or NTS) for 20 min and cAMP levels of the cells were measured using cAMP EIA System (GE Healthcare Bio-sciences)."}, "LC319 cells [5]": {"test_system": "LC319 cells", "assay": "Internalization study with fluorescence ligand of NMU (confocal microscopy)", "assay_type": "cell-based, human", "experimental": "LC319 cells were grown in DMEM containing 10% FCS. The cells were washed in PBS(−), and preincubated for 10 min at 37° C. in DMEM containing 0.1% BSA. The cells were then incubated for various periods of time with Alexa Fluor 594-labeled NMU-25 peptide in DMEM containing 0.1% BSA. At the end of incubation, the cells were washed three times with ice-cold PBS(−), fixed with 4% paraformaldehyde solution, initially for 5 min on ice and then for 15 min at room temperature. The cells were washed, and treated with DAPI. Images were viewed and assessed using confocal microscopy (TCS SP2 AOBS; Leica Microsystems). Optical sections with intervals of 0.25 μm were taken with 63×/1.4 objective."}},
  "note": "Where no end group is shown, it is not given here.",
  "data": [
    {"molecule": "Cy5-labeled NMU-25: Cy5 fluorescence-labeled NMU-25 peptide for the receptor-ligand binding assay (FRVDEEFQSPFASQSRGYFLFRPRN; ends and bridges not checked; also: Cy5 fluorescence label, site not given here)", "values": [
      {"measurement": "binding to the cell surface", "setting": "[1]", "value": "detected to bind to the surface"},
      {"measurement": "binding to the cell surface", "setting": "[2]", "value": "detected to bind to the surface"}
    ]},
    {"molecule": "nerotensin [NTS]", "values": [
      {"measurement": "NMU-induced cAMP production", "setting": "NSCLC cells", "value": "competitively inhibited"},
      {"measurement": "intracellular Ca^2+ flux / mobilization", "setting": "LC319 cells [3]", "value": "caused the mobilization response"},
      {"measurement": "cAMP production", "setting": "LC319 cells [4]", "value": "did not enhance"}
    ]},
    {"molecule": "NMU-25-Alexa594: Alexa Fluor 594-labeled NMU-25 peptide (conjugate) peptide: MLRTESCRPRSPAGQVAAASPLLLLLLLLAWCAGACRGAPILPQGLQPEQQLQLWNEIDDTCSSFLSIDSQPQASNALEELCFMIMGMLPKPQEQDEKDNTKRFLFHYSKTQKLGKSNVVSSVVHPLLQLVPHLHERRMKRFRVDEEFQSPFASQSRGYFLFRPRNGRRSAGFI", "values": [
      {"measurement": "localization of internalized ligand", "setting": "LC319 cells [5]; 15-min incubation", "value": "concentrated in dots or irregular clusters at more peripheral part of the cytoplasm"},
      {"measurement": "localization of internalized ligand", "setting": "LC319 cells [5]; 45-min incubation", "value": "concentrated within small spots clustered in the center of the cells, close to the nucleus"},
      {"measurement": "internalization of labeled ligand (xz- and yz-projections)", "setting": "LC319 cells [5]; confocal microscopy", "value": "incorporated within the cells"}
    ]}
  ]
}
